The target of assay [1] is T1, pY992 peptide (SEQ ID NO: 5) (Homo sapiens, UniProt P00533).
T1 construct: phosphotyrosine at Tyr992 (chemical modification); purchased New England Peptide, Fitchburg Mass; host or cells: chemical synthesis
Nature of the assay: 96-well screen for phosphopeptide binding proteins, 7-spot IPR plates. To be noted: two steps of normalization; top 9 clones. As for the experimental part:
(§1) A screen was conducted using 7-spot IPR plates. The 7 spot NPT IPR plates are described in more detail in copending Provisional Application No. 60/301,932 (entitled “Assay Plates, Reader Systems and Methods for Luminescence Test Measurements”, filed on Jun. 29, 2001, hereby incorporated by reference) and particularly in the description of Plate Type D in Example 6.1 (NPT IPR plate) and U.S. application Ser. Nos. 10/185,274 and 10/185,363, filed Jun. 28, 2002, each hereby incorporated by reference. These plates consist of a 96 wells with 7 zones (spots) for the immobilization of proteins or other reagents. Each spot was coated with BSA conjugated to either a single phosphopeptide or multiple phosphopeptides.
(§2) The plates were prepared essentially as described in example 12. The seven spots supported, respectively, the following BSA conjugates IkB, pY992, pY1068, pY1148, Myc, “A”, and “6-P”. “A” refers to a conjugate of BSA with multiple peptides: IkB, pY1148, Myc which were then coupled to BSA. “6-P” refers to a conjugate of BSA with the following multiple peptides: IkB, pY1148, pY992, pY1068, Smad3C.
(§3) For the assay, 4 ul from TnT reaction product described above were added to the coated plate containing 50 μl of binding buffer supplemented with 50 ng/well Ru-Streptavidin. The binding reaction was allowed to proceed at room temperature for 1 hour with constant shaking. […] The ECL signals were measured using an imaging plate reader (IPR). The raw data from the IPR reader was then normalized using two steps of normalization. The first round was based on the 50 lowest values for a given specific spot.

The target of assay [2] is T2, pY1068 peptide (SEQ ID NO: 7) (Homo sapiens, UniProt P00533).
T2 construct: phosphotyrosine at Tyr1068 (chemical modification); purchased New England Peptide, Fitchburg Mass; host or cells: chemical synthesis
Described as above. To be noted: two steps of normalization; top 9 clones. As for the experimental part:
as §1, §2, §3

The target of assay [3] is T3, pY1148 (SEQ ID NO: 9) (Homo sapiens, UniProt P00533).
T3 construct: phosphotyrosine at Tyr1148 (chemical modification); purchased New England Peptide, Fitchburg Mass; host or cells: chemical synthesis
Described as above. To be noted: two steps of normalization; top 9 clones. How it is done: as §1, §2, §3

Assay [4] deals with T4, c-Myc peptide [SEQ ID No. 4] (Homo sapiens, UniProt P01106).
T4 construct: phosphothreonine (T58) and phosphoserine (S62) (chemical modification); purchased New England Peptide, Fitchburg Mass; host or cells: chemical synthesis
As to the kind of experiment: Phosphopeptide binding assay, peptide-BSA coated IPR plate. As for the experimental part: A phosphopeptide derived from the IkBa degradation motif (SEQ ID NO: 1) and a phosphopeptide derived from c-Myc (SEQ ID NO: 4) were chemically synthesized (New England Peptide, Fitchburg Mass.) with the following sequences respectively:
To prepare IPR plates for use in the assay, approximately 2.4 pmol BSA, 1.2 pmole IκBα-24pp peptide-BSA conjugate or 1.2 pmole of Myc-p58Tp62S peptide-BSA conjugate in 2.5 μl were deposited on the carbon working electrode surface in a single well of a 96-well plate. At this stage, the plates were dried then used or stored under desiccated condition. A few hours prior to usage, the plates were rehydrated and blocked with 3% BSA, in PBS.
Two βTRCP genes, βTRCP1 and βTRCP2, are present in the human genome on […], respectively. The coding sequence of these two genes shares over 90% identity and several full-length cDNAs of which are available as EST clones from Incyte (Palo Alto, Calif.) IMAGE #3491843 and 4237375. Also included were three other non specific EST clones as controls (Incyte, Palo alto, Calif.). […] These DNAs were used to produce the βTRCP protein and proteins encoded by the other DNAs as described in the Example 7. Proteins were transferred into wells of the peptide-coated and BSA-blocked IPR plates. […] The ECL signals were measured using an imaging plate reader (IPR).

The target in assay [5] is T5, IkBa-24pp (SEQ ID NO: 1) (Homo sapiens, UniProt P25963).
T5 construct: two phosphoserines in the DSGLDS motif (chemical modification); purchased New England Peptide, Fitchburg Mass; host or cells: chemical synthesis
As to the kind of experiment: Single-well 4-spot assay for multiple peptide-protein interactions. The format is binding. The source says: Four phosphopeptides and their cognate binding proteins (Table 14) were selected for an integrated assay of multiple peptide-protein interaction in 4-spot Multi-Array plates. The IkBa-24pp peptide and its binding protein, βTRCP, are described in Example 10. The remaining peptides are derived from the carboxyl terminus of the EGF receptor. These phosphotyrosine containing peptides are recognized by different adaptor or effecter proteins of the receptor tyrosine kinase signaling pathway.
These four peptides were coupled to BSA carrier protein through cystine residue. After purification on PD-10 gel filtration columns, the peptide-BSA conjugates were then deposited on the assay domains of a 4-spot multi-array IPR plate (i.e., in one of the four exposed regions of working electrode defined by the dielectric layer) with an automated micro-dispensing system (Bio-Dot Dispenser, Bio-Dot, Irvine Calif.). Typically about 120 fmole of peptide:BSA conjugate in 0.25 μl was deposited on each spot of a 4-spot multi-array IPR plate. These plates are dried then used or stored under desiccated conditions. […] Thus, in this assay format, each peptide not only serves as the capture agent for assaying specific interaction with its binding protein, but also at the same time serves as a control for other peptide-protein interaction to be determined in the same well. […]

T5 sequence (P25963 with tags, fused parts or gaps limits assumed): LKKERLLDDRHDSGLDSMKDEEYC
T4 sequence (P01106 with tags, fused parts or gaps limits assumed): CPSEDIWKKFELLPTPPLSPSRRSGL

B1: 4419252: IMAGE clone protein: PLCγ (protein)
chain: MAGAASPCANGCGPGAPSDAEVLHLCRSLEVGTVMTLFYSKKSQRPERKTFQVKLETRQITWSRGADKIEGAIDIREIKEIRPGKTSRDFDRYQEDPAFRPDQSHCFVILYGMEFRLKTLSLQATSEDEVNMWIKGLTWLMEDTLQAPTPLQIERWLRKQFYSVDRNREDRISAKDLKNMLSQVNYRVPNMRFLRERLTDLEQRSGDITYGQFAQLYRSLMYSAQKTMDLPFLEASTLRAGERPELCRVSLPEFQQFLLDYQGELWAVDRLQVQEFMLSFLRDPLREIEEPYFFLDEFVTFLFSKENSVWNSQLDAVCPDTMNNPLSHYWISSSHNTYLTGDQFSSESSLEAYARCLRMGCRCIELDCWDGPDGMPVIYHGHTLTTKIKFSDVLHTIKEHAFVASEYPVILSIEDHCSIAQQRNMAQYFKKVLGDTLLTKPVEISADGLPSPNQLKRKILIKHKKLAEGSAYEEVPTSMMYSENDISNSIKNGILYLEDPVNHEWYPHYFVLTSSKIYYSEETSSDQGNEDEEEPKEVSSSTELHSNEKWFHGKLGAGRDGRHIAERLLTEYCIETGAPDGSFLVRESETFVGDYTLSFWRNGKVQHCRIHSRQDAGTPKFFLTDNLVFDSLYDLITHYQQVPLRCNEFEMRLSEPVPQTNAHESKEWYHASLTRAQAEHMLMRVPRDGAFLVRKRNEPNSYAISFRAEGKIKHCRVQQEGQTVMLGNSEFDSLVDLISYYEKHPLYRKMKLRYPINEEALEKIGTAEPDYGALYEGRNPGFYVEANPMPTFKCAVKALFDYKAQREDELTFIKSAIIQNVEKQEGGWWRGDYGGKKQLWFPSNYVEEMVNPVALEPEREHLDENSPLGDLLRGVLDVPACQIAIRPEGKNNRLFVFSISMASVAHWSLDVAADSQEELQDWVKKIREVAQTADARLTEGKIMERRKKIALELSELVVYCRPVPFDEEKIGTERACYRDMSSFPETKAEKYVNKAKGKKFLQYNRLQLSRIYPKGQRLDSSNYDPLPMWICGSQLVALNFQTPDKPMQMNQALFMTGRHCGYVLQPSTMRDEAFDPFDKSSLRGLEPCAISIEVLGARHLPKNGRGIVCPFVEIEVAGAEYDSTKQKTEFVVDNGLNPVWPAKPFHFQISNPEFAFLRFVVYEEDMFSDQNFLAQATFPVKGLKTGYRAVPLKNNYSEDLELASLLIKIDIFPAKENGDLSPFSGTSLRERGSDASGQLFHGRAREGSFESRYQQPFEDFRISQEHLADHFDSRERRAPRRTRVNGDNRL
Regarding B1, the “normalized ECL signal, pY992 spot” value in assay [1] amounted to 10. In assay [2], the “normalized ECL signal, pY1068 spot” value was 55. Also, the “normalized ECL signal, pY1148 spot” value in assay [3] was 4.

B2: 4237375: IMAGE clone protein: βTRCP2 (protein)
chain: MEPDSVIEDKTIELMCSVPRSLWLGCANLVESMCALSCLQSMPSVRCLQISNGTSSVIVSRKRPSEGNYQKEKDLCIKYFDQWSESDQVEFVEHLISRMCHYQHGHINSYLKPMLQRDFITALPEQGLDHIAENILSYLDARSLCAAELVCKEWQRVISEGMLWKKLIERMVRTDPLWKGLSERRGWDQYLFKNRPTDGPPNSFYRSLYPKIIQDIETIESNWRCGRHNLQRIQCRSENSKGVYCLQYDDEKIISGLRDNSIKIWDKTSLECLKVLTGHTGSVLCLQYDERVIVTGSSDSTVRVWDVNTGEVLNTLIHHNEAVLHLRFSNGLMVTCSKDRSIAVWDMASATDITLRRVLVGHRAAVNVVDFDDKYIVSASGDRTIKVWSTSTCEFVRTLNGHKRGIACLQYRDRLVVSGSSDNTIRLWDIECGACLRVLEGHEELVRCIRFDNKRIVSGAYDGKIKVWDLQAALDPRAPASTLCLRTLVEHSGRVFRLQFDEFQIISSSHDDTILIWDFLNVPPSAQNETRSPSRTYTYISR
For B2, the “Average ECL signal, c-Myc peptide [SEQ ID No. 4]” value in assay [4] turned out to be 896. Moreover, the “ECL signal, spot 1 IkBa-24pp” value in assay [5] (4-spot plate) stood at 5040. Besides, in assay [5] (spot 1 (IkBa-24pp-BSA conjugate)), the “fold higher ECL signal from spot 1 than with TnT mixtures containing no exogenous DNA” value came to 100 fold.

(Values after patent US7063946B2, “Methods, reagents, kits and apparatus for protein function analysis” (Meso Scale Technologies, LLC., priority 2001, dated 2006).)
